Laboratory results as given in patent publication US11530273B2, “Anti-CD73 monoclonal antibody, encoding nucleic acids and method for producing” (HELMHOLTZ ZENTRUM MÜNCHEN—DEUTSCHES FORSCHUNGSZENTRUM FÜR …, priority 2017, dated 2022).

What was measured:
soluble CD73 protein = biological target: T1, soluble CD73 protein (Homo sapiens, UniProt P21589); assay: Inhibitory preference: enzyme activity of soluble CD73; assay type: biochemical; settings: FIG. 10
T1 sequence (P21589 27-549 limits assumed): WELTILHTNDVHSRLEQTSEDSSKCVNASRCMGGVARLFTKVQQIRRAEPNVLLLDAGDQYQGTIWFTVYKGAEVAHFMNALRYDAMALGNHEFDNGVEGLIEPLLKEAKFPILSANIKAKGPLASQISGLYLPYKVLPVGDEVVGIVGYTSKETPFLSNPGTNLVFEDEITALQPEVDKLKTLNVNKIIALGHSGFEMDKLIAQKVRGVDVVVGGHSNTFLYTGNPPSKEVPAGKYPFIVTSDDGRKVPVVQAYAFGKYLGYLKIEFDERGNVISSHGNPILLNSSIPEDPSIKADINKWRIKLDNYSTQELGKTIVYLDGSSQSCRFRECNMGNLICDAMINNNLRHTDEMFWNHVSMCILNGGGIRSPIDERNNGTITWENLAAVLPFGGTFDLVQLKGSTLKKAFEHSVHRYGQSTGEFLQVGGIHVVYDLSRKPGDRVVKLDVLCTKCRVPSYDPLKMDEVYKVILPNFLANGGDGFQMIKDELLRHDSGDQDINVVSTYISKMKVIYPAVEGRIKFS

[1] = test system: peripheral blood mononuclear cells; assay: TNFα release in mixed lymphocyte reactions (ELISA); assay type: cell-based; settings: 5×10^5 PBMCs each from two donors, 22E6 50 μg/ml, 37°, 24 h, versus GSF-mAb
Method: 5×10^5 peripheral blood mononuclear cells each from two out of three different donors (A, B, C) were co-incubated in standard cell culture medium at 37° for 24 h with 22E6 (50 μg/ml) or a GSF-mAb (50 μg/ml) and the amount of TNFα was measured with a commercial ELISA assay.
Accordingly, 5×10^5 peripheral blood mononuclear cells (PBMCs) each from two out of three different donors (A, B, C) were co-incubated in standard cell culture medium at 37° for 24 h with 22E6 (50 μg/ml) or a GSF-mAb (50 μg/ml) and the amount of TNFα was measured with a commercial ELISA assay.

human CLL cells = assay: ADO generation by human CLL cells; assay type: cell-based
From the text: APCP is a CD73 small molecule inhibitor.
(§1) Adenosine 5′-(α,β-methylene)diphosphate (APCP) is a small-molecule specific CD73 inhibitor.

[2] = biological target: T2, CD73 protein on cancer cells (Homo sapiens, UniProt P21589); assay: Flow cytometry (FACS) with 22E6 and anti-rat-IgG fluorophore-labeled secondary mAb on human cancer cell lines; assay type: binding; settings: approx. 30 tested human cancer cell lines, e.g. U138 MG, GBM20, MDA-MB231, T47D
T2 construct: present on the surface of human cancer cells of a total of approx. 30 tested cell lines; endogenous in cells; host or cells: about 30 human cancer cell lines, e.g. U138 MG, GBM20, MDA-MB231, T47D
T2 sequence (P21589 27-549): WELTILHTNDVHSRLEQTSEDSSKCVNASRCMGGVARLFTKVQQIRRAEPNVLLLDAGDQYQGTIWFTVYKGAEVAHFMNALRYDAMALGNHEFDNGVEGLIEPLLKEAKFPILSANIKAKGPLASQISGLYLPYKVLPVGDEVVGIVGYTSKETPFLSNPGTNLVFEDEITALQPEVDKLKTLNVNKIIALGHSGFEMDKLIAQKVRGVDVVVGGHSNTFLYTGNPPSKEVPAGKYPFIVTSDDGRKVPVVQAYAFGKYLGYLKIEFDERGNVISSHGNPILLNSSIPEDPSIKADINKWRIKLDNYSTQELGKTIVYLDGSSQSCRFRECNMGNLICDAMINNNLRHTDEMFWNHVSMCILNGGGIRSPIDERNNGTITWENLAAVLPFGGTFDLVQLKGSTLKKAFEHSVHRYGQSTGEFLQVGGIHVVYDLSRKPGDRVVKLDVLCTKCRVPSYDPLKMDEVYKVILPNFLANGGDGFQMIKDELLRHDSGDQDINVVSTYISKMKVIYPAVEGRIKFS
Method: (§2) FIG. 3: mAb 22E6 recognizes CD73 on cancer cells. […] Shown are 4 representative cell lines of a total of approx. 30 tested cell lines. U138 MG and GBM20 are glioblastoma cell lines, MDA-MB231 and T47D are human breast cancer cell lines. (B) Immunoblot with the same cell line, using a commercial CD73 mAb. […] Input=U138 lysate.
(§3) In this example, mAb 22E6 binding affinity was characterized (FIG. 3). […] Using a special flow cytometry technique, a fluorescence-activated cell sorting (FACS) with 22E6 and an anti-rat-IgG-specific, fluorophore-labeled secondary mAb, it was shown that the protein recognized by the 22E6 mAb of the invention is present on the surface of human cancer cells of a total of approx. 30 tested cell lines. U138 MG and GBM20 are glioblastoma cell lines, MDA-MB231 and T47D are human breast cancer cell lines. In order to compare the specificity of mAb 22E6 with the specificity of a commercial CD73 mAb an immunoblot with the same cell lines (U138 MG, GBM20, MDA-MB231 and T47D) was performed using the commercial CD73 mAb as shown in FIG. 3B.

CD73 protein = biological target: T3, CD73 protein (Homo sapiens, UniProt P21589); assay: Immunoprecipitation of CD73 from U138 glioblastoma cell lysates followed by immunoblot with commercial CD73 mAb; assay type: binding; settings: U138 glioblastoma lysate, versus isotype mAb
T3 construct: immunoprecipitation of the CD73 protein from lysates of U138 glioblastoma cells; endogenous in cells; host or cells: U138 glioblastoma cells (lysate)
T3 sequence (P21589 27-549): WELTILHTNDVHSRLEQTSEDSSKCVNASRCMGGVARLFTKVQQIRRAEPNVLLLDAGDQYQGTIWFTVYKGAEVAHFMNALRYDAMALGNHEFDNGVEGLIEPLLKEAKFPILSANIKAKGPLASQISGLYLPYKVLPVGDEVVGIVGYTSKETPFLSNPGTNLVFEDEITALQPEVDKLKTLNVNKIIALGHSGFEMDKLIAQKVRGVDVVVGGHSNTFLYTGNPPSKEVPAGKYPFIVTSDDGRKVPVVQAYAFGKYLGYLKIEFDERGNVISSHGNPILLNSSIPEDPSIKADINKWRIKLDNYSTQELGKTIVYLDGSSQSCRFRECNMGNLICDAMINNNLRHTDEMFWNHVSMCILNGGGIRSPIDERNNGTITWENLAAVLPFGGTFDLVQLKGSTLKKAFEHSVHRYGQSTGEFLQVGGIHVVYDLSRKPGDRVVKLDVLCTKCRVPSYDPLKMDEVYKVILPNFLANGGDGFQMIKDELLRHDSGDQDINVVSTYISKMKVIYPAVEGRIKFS
Method: as §2, §3

[3] = biological target: T4, CD73 on cancer derived EVs (Homo sapiens, UniProt P21589); assay: ADO production by EVs from malignant ascites (inorganic phosphate, malachite green assay); assay type: biochemical; settings: phosphate-free buffer, 1 mM AMP, 60 min, versus isotype mAb
T4 construct: from tissue; host or cells: extracellular vesicles from malignant ascites (ovarian cancer patient)
T4 sequence (P21589 27-549): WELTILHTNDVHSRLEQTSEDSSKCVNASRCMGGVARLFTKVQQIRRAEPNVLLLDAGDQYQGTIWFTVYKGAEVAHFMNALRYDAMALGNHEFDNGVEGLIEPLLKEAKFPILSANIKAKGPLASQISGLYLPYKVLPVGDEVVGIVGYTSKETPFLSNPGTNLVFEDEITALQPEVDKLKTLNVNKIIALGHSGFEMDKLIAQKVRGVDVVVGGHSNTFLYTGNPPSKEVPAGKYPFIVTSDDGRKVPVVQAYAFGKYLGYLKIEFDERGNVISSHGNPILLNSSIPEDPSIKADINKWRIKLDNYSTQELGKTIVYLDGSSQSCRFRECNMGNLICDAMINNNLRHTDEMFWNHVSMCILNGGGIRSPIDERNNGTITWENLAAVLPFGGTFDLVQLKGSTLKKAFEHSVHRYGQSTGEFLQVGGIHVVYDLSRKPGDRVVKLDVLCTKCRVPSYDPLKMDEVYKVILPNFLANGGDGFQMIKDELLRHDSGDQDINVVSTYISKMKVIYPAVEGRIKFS
Method: FIG. 9: 22E6 blocks ADO production by EVs from malignant ascites. EVs were incubated in phosphate-free buffer in the presence of 1 mM AMP with APCP, 22E6 or an isotype mAb for 60 min and the concentration of inorganic phosphate (Pi; produced alongside the dephosphorylation of AMP) was quantified with a malachite green assay.
Accordingly, EVs were incubated in phosphate-free buffer in the presence of 1 mM AMP with APCP, 22E6 or an isotype mAb for 60 min and the concentration of inorganic phosphate (Pi; produced alongside the dephosphorylation of AMP) was quantified with a standard malachite green assay. Based on the above it was concluded that 22E6 inhibits CD73 on cancer derived EVs.

[4] = biological target: T5, membrane-bound form of CD73 protein (Homo sapiens, UniProt P21589); assay: Inhibitory preference: enzymatic activity of membrane-bound CD73; assay type: biochemical; settings: FIG. 10
T5 sequence (P21589 27-549): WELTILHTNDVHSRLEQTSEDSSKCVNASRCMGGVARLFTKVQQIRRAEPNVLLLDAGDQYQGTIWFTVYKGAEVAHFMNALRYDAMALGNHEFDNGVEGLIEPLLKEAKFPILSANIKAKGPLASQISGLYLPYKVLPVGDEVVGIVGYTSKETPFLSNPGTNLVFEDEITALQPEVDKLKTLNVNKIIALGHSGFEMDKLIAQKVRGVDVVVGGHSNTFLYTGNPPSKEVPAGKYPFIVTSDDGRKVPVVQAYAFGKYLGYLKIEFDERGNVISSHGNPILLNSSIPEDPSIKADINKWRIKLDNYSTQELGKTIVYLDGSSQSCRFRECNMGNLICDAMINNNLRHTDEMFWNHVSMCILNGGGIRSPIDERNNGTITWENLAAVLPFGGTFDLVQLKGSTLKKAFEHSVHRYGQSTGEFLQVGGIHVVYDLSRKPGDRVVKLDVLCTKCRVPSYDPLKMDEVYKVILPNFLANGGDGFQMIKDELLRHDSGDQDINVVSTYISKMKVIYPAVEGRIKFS

[5] = test system: Peripheral blood mononuclear cells (PBMCs); assay: IFN-γ release by PBMCs (ELISA); assay type: cell-based; settings: PBMCs from two donors incubated separately; 22E6 0.5 μg/ml and 5 μg/ml; 24 h; versus isotyp antibody
Method: FIG. 15: Massive release of interferon-gamma (IFN-γ) being induced by mAB 22E6 in comparison to an isotyp antibody. IFN-γ being a marker for the activation of cytotoxic T-cells. Peripheral blood mononuclear cells (PBMCs) from two different donors were incubated separately as indicated at 37° C. for 24 h. Interferon-gamma (IFN-γ) in the supernatant was then quantified by a standard ELISA assay.
Peripheral blood mononuclear cells (PBMCs) from two different donors were incubated separately in standard cell culture medium at 37^0 for 24 h with 22E6 (0.5 μg/ml and 5 μg/ml), APCP (1 μM and 5 μM), isotyp antibody (5 μg/ml), aPD-1 (5 μg/ml) and control (5 μg/ml). The amount of interferon-gamma (IFN-γ) in the supernatant was then measured with a commercial ELISA assay.

[6] = test system: CD73-positive human A375 melanoma cells; assay: AMP to adenosine conversion by CD73-positive A375 melanoma cells; assay type: cell-based; settings: A375 melanoma cells incubated with AMP for 60 min
Method: CD73-positive human A375 melanoma cells were incubate with AMP for 60 min and the concentration of AMP (left) and ADO (right) in the supernatant were measured. APCP is a small-molecule specific CD73 inhibitor.
as §1

B1: 22E6: rat monoclonal anti-CD73 antibody from immunization with GBM20 glioblastoma EVs; VH SEQ ID NO: 9, VL SEQ ID NO: 13 (antibody, listed as Rattus norvegicus, V domains shown)
VH: EVQLVESGGGLVQPGRSMKLSCAASGFTFSFYYMAWVRQAPTKGLEWVASISTGGGNTYYRDSVKGRFTISRDDAKSTLYLQMDSLRSEETATYYCARHGGDYYGYRGGYFDYWDQGVMVTVSS
VL: DIQMTQTPSSMPASLGERVTISCRASQGINNYLNWYQQKPDGTIKPLIYYTSNLQSGVPSRFSGSGSGTDYSLTISSLEPEDFAMYYCQQYDNSPYTFGAGTKLELK
modifications: (1)..(124) VH region; SITE (26)..(32) VH complementary determining region 1 (VH CDR1); SITE (52)..(57) VH complementary determining region 2 (H-CDR2); SITE (99)..(113) VH complementary determining region 3 (H-CDR3); (1)..(107) VL region; SITE (24)..(34) VL complementary determining region 1 (L-CDR1); SITE (50)..(56) VL complementary determining region 2 (L-CDR2); SITE (89)..(97) VL complementary determining region 3 (L-CDR3)
- effect on the enzyme activity of soluble CD73 protein (soluble CD73 protein): no or essentially no effect
- release of TNFα [1]: increases the release of TNFα
- ADO generation (human CLL cells): inhibits ADO generation by human CLL cells
- recognition of CD73 on the surface of cancer cells [2]: recognizes CD73 protein on cancer cells
- specificity for CD73 by immunoprecipitation (CD73 protein): demonstrated the specificity of 22E6
- ADO production by EVs (inorganic phosphate concentration) [3]: blocks ADO production by EVs derived from malignant ascites
- inhibitory preference, membrane-bound versus soluble form of CD73 [4]: inhibitory preference for enzymatic activity of a membrane-bound form of CD73 protein
- release of IFN-γ in the supernatant [5]: increases massive release of IFN-γ
- adenosine production (AMP and ADO concentration in supernatant) [6]: blocks adenosine production
